Measurements reported in patent US10323085B2, “Methods of treating fibromyalgia” (Teva Pharmaceuticals International GmbH, priority 2008, dated 2019).

T1: adrenomedullin (Homo sapiens, UniProt P35318)
T1 sequence (P35318 95-146 limits assumed): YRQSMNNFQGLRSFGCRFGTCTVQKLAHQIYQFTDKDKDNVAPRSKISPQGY

T2: calcitonin (Homo sapiens, UniProt P01258)
T2 sequence (P01258 85-116 limits assumed): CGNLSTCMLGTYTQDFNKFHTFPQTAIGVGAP

T3: amylin (Homo sapiens, UniProt P10997)
T3 sequence (P10997 34-70 limits assumed): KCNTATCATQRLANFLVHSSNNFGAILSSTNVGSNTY


Columns and labels:
[1] = tested on: CGRP; experiment: Neurogenic skin flare rat model (saphenous nerve stimulation, laser Doppler blood flow); assay type: in vivo; conditions: for start of significant decrease in blood flow response post dose: intravenous; for development of neurogenic flare in vivo: rat
Procedure: Using a neurogenic skin flare rat model the efficacy of G1 was tested for its ability to block CGRP effect in vivo. The saphenous nerve in the rat is electrically stimulated causing CGRP release from nerve endings and leading to vasodilation, the resulting changes in blood flow can be measured using laser Dopler methods.
Changes in blood flow parameters were expressed as the area under the curve (AUC, change in arbitrary Doppler flux units multiplied by time). CGRP receptor antagonist CGRP8-37 (400 nmol/kg, i.v.) was used as a positive control to validate the specificity of the model (data not shown). To determine the effect of G1 prior to dosing for each animal, the baseline blood flow response to stimulation was established with two saphenous nerve stimulations each 30 minutes apart. Rats were treated with G1 after the blood flow response of the second stimulation had returned to baseline levels (approximately 10 minutes post stimulation) and an additional four stimulations at 30 minute intervals were performed.

[2] = tested on: CGRP1-receptor in SK-N-MC cells; experiment: Binding assay: blocking human α-CGRP from binding to the CGRP1-receptor in SK-N-MC cells; conditions: FIG. 4
[3] = tested on: rat CGRP; experiment: Solution competition by Biacore (specificity); assay type: binding; conditions: pre-incubated with rat CGRP
From the text: (§1) We determined the specificity of antibody G1 to human or rat CGRP by using the Biacore chip to “probe” the free concentration of a premixed complex of mAb+peptide.

[4] = target: T1, adrenomedullin; experiment: Solution competition by Biacore (specificity); assay type: binding; conditions: pre-incubated with an excess of adrenomedullin
From the text: as §1

[5] = target: T2, calcitonin; experiment: Solution competition by Biacore (specificity); assay type: binding; conditions: pre-incubated with an excess of calcitonin
From the text: as §1

[6] = target: T3, amylin; experiment: Solution competition by Biacore (specificity); assay type: binding; conditions: pre-incubated with an excess of amylin
From the text: as §1

[7] = tested on: human CGRP; experiment: Solution competition by Biacore (specificity); assay type: binding; conditions: pre-incubated with human CGRP
From the text: as §1

[8] = tested on: rats; experiment: Indicators of physical or psychological dependence, long term observation of dosed animals; conditions: rat, in vivo
[9] = target: T4, 25-37 human α-CGRP fragment (Homo sapiens, UniProt P06881); experiment: Alanine scan of C-terminal CGRP fragment (CGRP 25-37) by Biacore, epitope identification; assay type: binding; conditions: 25° C., Biacore 3000
T4 construct: (CGRP 25-37)
Procedure: Interaction analysis was conducted at 25° C. on a Biacore 3000™ system equipped with streptavidin-coated (SA) sensor chips (Biacore AB, Uppsala, Sweden) using a standard Biacore running buffer (HBS-P). […] Each amino acid between position 27-37 was then mutated individually to alanine and expressed the fold loss in affinity compared to the wild-type fragment. N-biotinylated fragments were captured on individual flow cells at low levels (typically 100 response units) to provide the reaction surfaces, while an unmodified flow cell served as a reference channel. Purified Fab fragments of antibody G1 were generated. Fab fragments were titrated over the chip using 1 μM as the top concentration of a two-fold dilution series. Association and dissociation phases were monitored at 100 μl/min for 1 minute and 5 minutes respectively. Surfaces were regenerated with a mixture of 35% ethanol+25 mM NaOH+0.5M NaCl.

[10] = tested on: MRMT-1 injected rats; experiment: Bone cancer pain model (MRMT-1), mechanical hypersensitivity to von Frey stimuli; assay type: in vivo, rat; conditions: IV 10 mg/kg at day 9
Procedure: Tumour cells used are syngeneic MRMT-1 rat mammary gland carcinoma cells donated from the Novartis Institute (London). The cells are cultured in RPMI 1640 (Gibco) with 10% foetal bovine serum (FCS), 1% L-glutamine 2% penicillin/streptomycin (Gibco). Two brief washes are carried out with 0.1% w/v trypsin to release those cells which adhere to the flask, and then quenched with an equal volume of 10% FCS, followed by centrifugation of the solution for 3 minutes at 1200 rpm. The pellet is washed and resuspended in Hanks medium, and the concentration of cells calculated using a Haemocytometer, with trypan blue staining to determine the number of dead MRMT-1 cells. The final concentration of 3×10^3 cells was then obtained by diluting the solution according to the number of cells seen. The final solution was kept on ice until time of injection.
Male Sprague-Dawley rats weighing close to 170 g at time of surgery were used to generate the cancer model. Anaesthesia was induced in the rats using halothane or isoflurane (1.5-2%) 66% N2O and 33% O2, the leg was shaved over the appropriate area and disinfected with chlorhexidine (Animalcare Ltd, UK.). A small incision in order to expose the anterior-medial surface of the distal end of the tibia was made. A hole was bored in the periosteum using a 0.7 mm dental drill, through which a 2 cm polythene tubing was fed 1 cm into the intra-medullar cavity of the tibia. Using a Hamilton syringe the pre-prepared 10 μl of 3×10^3 MRMT-1 cells were injected through the tubing into the cavity. The tubing was then removed and the hole plugged using bone restorative material (IRM, Dentsply USA). The wound was then irrigated with 0.9% saline and closed with a metal clip. The sham animals were operated upon using the same procedure but injected with 10 μl of Hank's solution alone. The animals were placed in a thermoregulated recovery box until such time that they were able to be placed back in their housing cages.
Testing behaviour towards mechanical stimuli uses von Frey filaments (North Coast Medical Inc., USA) to the plantar surface of both the ipsilateral and contralateral hindpaw. The rats were placed in a Perspex cubicle with a mesh floor and allowed to acclimatise for 10 minutes. Each von Frey was applied 10 times to each hindpaw alternating between the ipsilateral and contralateral, for duration of 2-3 seconds each time. […] A nocifensive response (a lift) is defined as a brisk withdrawal of the hindpaw and the number of lifts for each paw at each von Frey are recorded (maximum of 10) and expressed as a percentage response. An assessment of the efficacy of rodent anti-CGRP antibody G2 in attenuating hypersensitivity to a wide variety of static mechanical, cooling and integrated stimuli was carried out as well as the background basal pain behaviours in this validated model of cancer induced bone pain. The responses measured are attenuated by standard analgesic treatments such as morphine and gabapentin. All measures were made by the same scientist in a blind fashion—blinded to the identity of the compound/control and to the treatment of the animal.
G2-was given IV at 10 mg/kg at day 9 and rats were tested at 2 hrs and then on days 10, 11, 12 and then 14-18 days post treatment (FIG. 1).

[11] = tested on: MRMT-1 injected rats; experiment: Rota rod test for motor impairment in the bone cancer pain model; assay type: in vivo, rat; conditions: MRMT-1 injected rats treated at day 9 post surgery
From the text: A further end point tested in the bone cancer pain model was ambulation (by rotarod). The test is to obtain a measurement of locomotor impairment comparing antibody treated with control animals, each subjected to the same test under the same conditions. The rota rod test consists of 4 rotateable drums divided by flanges with a motor-driven drum accelerated (Ugo Basile, Comerio, VA, Italy). For a given trial, a rat is placed on the rotating rod and the rotation speed is accelerated from 4 to 16 rpm in 2 min. The time of maximal performance is typically set at 120 sec. Each animal generally receives three trials per day, at 1 hr intervals, for several consecutive days post-surgery. The latency to fall off the rod is represented as mean of the three trials.

| complex formation with peptide [4] | complex formation with peptide [5] | complex formation with peptide [6] | affinity of N-biotinylated 25-37 human α-CGRP fragment compared with full-length N-biotinylated human α-CGRP [9] | Molecule | start of significant decrease in blood flow response post dose ([1]; 1 mg/kg) | start of significant decrease in blood flow response post dose ([1]; 10 mg/kg) | inhibits neurogenic flare in the skin starting from, post-treatment ([1]; FIG. 9, intravenous administration) | development of neurogenic flare in vivo [1] | inhibition of binding of α-CGRP to the CGRP1 receptor [2] | Biacore response after pre-incubation with peptide [3] | Biacore response after pre-incubation with peptide [7] | CNS penetration [8] | hypersensitivity to von Frey 15 g vs vehicle treated group ([10]; 2 and 3 days after drug administration) | hypersensitivity to von Frey 15 g vs vehicle treated group ([10]; 2 hours post-injection) | hypersensitivity to von Frey 15 g vs vehicle treated group ([10]; 6 days after G2 administration) | Withdrawal frequencies to von Frey 8 g vs vehicle treated group ([10]; day 14 (day 5 post-G2 injection)) | Withdrawal frequencies to von Frey 8 g vs vehicle treated group ([10]; days 11 and 12 (days 2 and 3 after injection)) | Withdrawal frequencies to von Frey 8 g ([10]; two hours after injection) | latency to fall from the rotarod during forced ambulation vs vehicle group [11] |
| --- | --- | --- | --- | --- | --- | --- | --- | --- | --- | --- | --- | --- | --- | --- | --- | --- | --- | --- | --- |
| did not form a complex | did not form a complex | did not form a complex | same affinity | G1: humanized IgG2Δa monoclonal anti-CGRP antagonist antibody from expression vectors ATCC PTA-6867 and PTA-6866; variable regions SEQ ID Nos. 1 and 2 | 120 min | 90 min | 90 min | prevent the development of neurogenic flare | inhibits the binding | fully blocked | fully blocked | Neither antibody G1 nor antibody G2 demonstrate CNS penetration | – | – | – | – | – | – | – |
| – | – | – | – | G2: anti-rat CGRP mouse monoclonal antibody (Wong H C et al. Hybridoma 1993); variable regions SEQ ID Nos. 19 and 20; murine tool (antibody, V domains shown, Synthetic polypeptide, Antibody G2 heavy chain variable region; Synthetic polypeptide, Antibody G2 light chain variable region, anti-rat CGRP mouse monoclonal antibody (Wong H C et al. Hybridoma 1993); murine tool) VH: EVQLQQSGPELVKPGASVKMSCKASGYTFTSSVMHWVKQKPGQGLEWIGYINPYNDGTKYNEKFKGKATLTSDKSSSTAYMELSSLTSEDSAVYYCAKGGNDGYWGQGTTLTVSS VL: EIVLTQSPTTMAASPGEKITITCSASSSISSIYLHWYQQKPGFSPKVLIYRASNLASGVPARFSGSGSGTSYSLTIGTMEAEDVATYYCQQGSTIPFTFGSGTKLEIK | – | – | – | prevent the development of neurogenic flare | – | – | – | Neither antibody G1 nor antibody G2 demonstrate CNS penetration | significance seen | reduction in hypersensitivity | reductions were lost | no discernible difference | significantly reduced | reduced | No differences were found |
